Legend:
[1] = target: T1, Crk (Homo sapiens, UniProt P46108); assay: co-immunoprecipitation with Crk in 293T cells; type: binding; conditions: anti-PBP-TAG immunoprecipitation, Western blot with antibody against Crk
T1 construct: expressed in transfected cells; host or cells: 293T cells
Description: Since PBP has two consensus sequences for Crk binding, the interaction between PBP and Crk was also examined. The expression plasmid containing PBP cDNA attached to TAG and a plasmid containing Crk cDNA were co-transfected into 293T cells. Forty-eight hrs later, cells were lysed and proteins immunoprecipitated with anti-PBP-TAG and run on SDS acrylamide gels.
For immunoprecipitation of the large hydrophilic loop of PSs or Crk with PBP, cells were lysed in RIPA buffer (100 mM NaCl, 0.5% NP-40, 0.5% DOC, 0.1% SDS, 50 mM Tris, pH 7.5, 1 mM PMSF and 1 μg/ml aprotinin, 1 μg/l leupeptin) on ice for 30 min. For immunoprecipitation of full length PS1 with PBP, RIPA buffer with 1% NP40 but without DOC and SDS was used. Cell lysates were spun for 10 min at 10,000 g. The resulting supernatants were preadsorbed with anti-mouse IgG-agarose (Sigma) for 4 hours at 4° C. After centrifugation, antibody 12CA5 and anti-mouse IgG-agarose were added at 4° C. overnight. After incubation with anti-mouse IgG-agarose, immunoprecipitates were subjected to SDS-polyacrylamide gel electrophoresis and transferred to Immobilon (Millipore, Bedford, Mass.). Western blot analysis with anti-FLAG and 12CA5 monoclonal antibodies or an antibody against Crk was then performed. The bound antibodies were detected by the ECL-plus chemiluminescence system (Amersham, Arlington Heights, Ill.).

[2] = test system: HEK293 cells; assay: secretion of endogenous APP751 by HEK293 cells; type: cell-based; conditions: HEK293 cells expressing PBP
Description: Western blotting, metabolic labeling and immunoprecipitation: For western blotting, cells were washed twice with ice-cold PBS and lysed in lysis buffer (1% Triton, 50 mM Hepes pH 7.5, 50 mM NaCl, 5 mM EDTA, 1 mM Na3VO4, 50 mM NaF, 10 mM Na4P2O7, plus a mixture of protease inhibitors (Complete Mini; Roche, Ind., USA). Protein concentrations were determined by Coomassie Plus (Pierce; IL, USA). The same amount of protein from each sample was separated on Novex pre-cast polyacrylamide gels (Invitrogen; CA, USA), and transferred to Immobulin membranes (Millipore; MA, USA). The membranes were blocked with 5% non-fat milk in Tris-buffered saline for 1 hour at room temperature. Following overnight incubation at 4° C. with primary antibodies, the antigens are detected with horseradish peroxidase-conjugated secondary antibodies (Bio-Rad; CA, USA; 1:20,000), an ECL kit (Amersham; NJ, USA), and exposed to films. For pulse-chase experiments, cells were grown to 80% confluency and incubated in methionine-free DMEM for 90 min. […] Protein concentrations were determined and the same amounts of proteins were immunoprecipitated with antibodies at 4° C. overnight 25 μl of anti-mouse IgG agarose (Roche) was then added to each sample and incubated at 4° C. for 2 hours on a rocker platform. […] The gels were dried and subjected to autoradiography and quantitated by NIH image. […]

T1 sequence (P46108 whole entry, species assumed): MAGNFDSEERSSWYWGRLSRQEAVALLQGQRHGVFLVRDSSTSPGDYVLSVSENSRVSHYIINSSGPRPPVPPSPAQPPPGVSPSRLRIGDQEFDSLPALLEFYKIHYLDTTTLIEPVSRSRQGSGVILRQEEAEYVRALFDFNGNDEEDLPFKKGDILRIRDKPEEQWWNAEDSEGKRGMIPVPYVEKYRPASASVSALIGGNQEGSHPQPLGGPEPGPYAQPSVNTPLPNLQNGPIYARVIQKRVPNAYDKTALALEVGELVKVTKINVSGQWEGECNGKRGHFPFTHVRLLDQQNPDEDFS

**Q.** “PBP: novel 2027 amino acid protein, 233 kD, binds presenilins and Crk; expressed from cDNA in cells (KYGVVICSFRGSVPQGLVLEIGETVQILEKCEGWYRGVSTKKPNVKGLFPANYIHLK; listed as Mus musculus)” was tested. Which “co-precipitation with Crk” value [1] did it give?
**A.** The value was “co-precipitates”.

**Q.** What about the “secretion of endogenous APP751” value [2] of the same substance?
**A.** Its value is “reduced”.

Source: patent publication US20030077740A1, “Presenilin/Crk binding polypeptides (PCBP) and methods of use thereof” (priority 2001, published 2003)
